Results reported in patent publication US8871909B2, “Antibodies inhibiting c-Met dimerization and uses thereof” (Pierre Fabre Medicament, priority 2007, dated 2014).

B1: 223C4: murine anti-c-Met monoclonal antibody, IgG1 kappa; heavy chain SEQ ID No. 20, light chain SEQ ID No. 23 (antibody, V domains shown)
VH: EVLLQQSGPELVKPGASVKIPCKASGYTFTDYNMDWVKQSHGMSLEWIGDINPNNGGTIFNQKFKGKATLTVDKSSSTAYMELRSLTSEDTAVYYCARGRYVGYYYAMDYWGQGTSVTVSS
VL: DIQMTQSPASLSVSVGETVTITCRASENIYSNLAWYQQKQGKSPQLLVYAATNLVDGVPSRFSGSGSGTQYSLKINSLQSEDFGSYYCQHFWGPPYTFGGGTKLEIK
modifications: mus musculus
B2: 224G11: murine anti-c-Met monoclonal antibody, IgG1 kappa; heavy chain SEQ ID No. 18, light chain SEQ ID No. 21 (antibody, V domains shown)
VH: EVQLQQSGPELVKPGASVKISCKTSGYIFTAYTMHWVRQSLGESLDWIGGIKPNNGLANYNQKFKGKATLTVDKSSSTAYMDLRSLTSEDSAVYYCARSEITTEFDYWGQGTALTVSS
VL: DIVLTQSPASLAVSLGQRATISCRASESVDSYANSFMHWYQQKPGQPPKLLIYRASNLESGIPARFSGSGSRTDFTLTINPVEADDVATYYCQQSKEDPLTFGSGTKLEMK
modifications: mus musculus
B3: 11E1: murine anti-c-Met monoclonal antibody, IgG1 kappa; heavy chain SEQ ID No. 62, light chain SEQ ID No. 63 (antibody, V domains shown)
VH: QVQLQQSGAELAKPGASVKMSCKASGYTFTSYWMNWVKQRPGQGLEWIGYINPTTGSTDYNQKLKDKATLTADKSSNTAYMQLSSLTSEDSAVYYCAIGGYGSWFAYWGQGTLVTVSA
VL: QIVLTQSPAIMSASPGEKVTLTCSASSSVSSTYLYWYQQKPGSSPKLWIYTTSILASGVPARFSGSGSGTSYSLTISSMETEDAASYFCHQWSSYPFTFGSGTKLDIK
modifications: mus musculus

Assays:
[1] = tested on: U-87MG, human glioblastoma cells; test: U87-MG spheroid growth; assay type: cell-based; settings: antibody 10 μg/ml
Description: To evaluate the ability of anti-c-Met antibodies to inhibit in vitro tumor growth, in a model closer to an in vivo situation, U-87MG, human glioblastoma cells (ATCC #HTB-14) spheroids were generated. Cells grown as a monolayer were detached with trypsine-EDTA and resuspended into complete cell culture media (DMEM) supplemented with 10% FBS. Spheroids were initiated by inoculating 625 cells into single wells of round bottom, 96 plates in DMEM-10% FCS. To prohibit cell adhesion to a substratum, the plates were pre-coated with polyHEMA in 95% ethanol and air dried at room temperature. The plates were incubated under standard cell culture conditions at 37° C., 5% CO2 in humidified incubators. Purified monoclonal antibodies (10 μg/ml) were added after 3 and 7 days of spheroid culture. HGF (400 ng/ml) was added once after 4 days of culture. Spheroids were kept in culture for at least 10 days. Then, spheroid growth was monitored by measuring the area of spheroids using automeasure module of axiovision software. Area was expressed in μm^2. 8-16 spheroids were evaluated for each condition.
As already described in Example 9 for other Mabs, we evaluate the ability of 224G11 Mab to inhibit in vitro tumor growth in the U87-MG spheroid model. For that purpose, U87-MG cells grown as a monolayer were detached with trypsine-EDTA and resuspended into complete cell culture media. Spheroids were initiated by inoculating 625 cells into single wells of round bottom, 96 plates in DMEM-2.5% FCS. To prohibit cell adhesion to a substratum, the plates were pre-coated with polyHEMA in 95% ethanol and air dried at room temperature. The plates were incubated under standard cell culture conditions at 37° C., 5% CO2 in humidified incubators. Purified monoclonal antibodies (10 μg/ml) were added after 4 and 10 days of spheroid culture. Spheroids were kept in culture for 17 days. Then, spheroid growth was monitored by measuring the area of spheroids using automeasure module of axiovision software. Area was expressed in μm^2. 8-16 spheroids were evaluated for each condition. Spheroid size was measured before addition of antibodies, after 10 days of culture and after 17 days of culture.

c-Met = test: BRET analysis of c-Met dimerization on c-Met transfected CHO cells; assay type: cell-based; settings: CHO cells expressing C-Met-Rluc and C-Met-K1100A-YFP, supernatants
Description: The technology BRET, used in the step iii) of the process, is well known by the person skill in the art and will be detailed in the following examples. More particularly, BRET (Bioluminescence Resonance Energy Transfer) is a non-radiative energy transfer occurring between a bioluminescent donor (Renilla Luciferase (Rluc)) and a fluorescent acceptor, a mutant of GFP (Green Fluorescent Protein) or YFP (Yellow fluorescent protein). In the present case EYFP (Enhanced Yellow Fluorescent Protein) was used. The efficacy of transfer depends on the orientation and the distance between the donor and the acceptor. Then, the energy transfer can occur only if the two molecules are in close proximity (1-10 nm). This property is used to generate protein-protein interaction assays. Indeed, in order to study the interaction between two partners, the first one is genetically fused to the Renilla Luciferase and the second one to the yellow mutant of the GFP. Fusion proteins are generally, but not obligatory, expressed in mammalian cells. In presence of its membrane permeable substrate (coelenterazine), Rluc emits blue light. If the GFP mutant is closer than 10 nm from the Rluc, an energy transfer can occur and an additional yellow signal can be detected. The BRET signal is measured as the ratio between the light emitted by the acceptor and the light emitted by the donor. So the BRET signal will increase as the two fusion proteins are brought into proximity or if a conformational change bring Rluc and GFP mutant closer.
Then antibodies inhibiting at least 50% cell proliferation were evaluated as supernatants by BRET analysis on c-Met transfected cells. For that purpose, CHO stable cell lines expressing C-Met-Rluc or C-Met-Rluc and C-Met-K1100A-YFP were generated. Cells were distributed in white 96 well microplates in DMEM-F12/FBS 5% culture medium one or two days before BRET experiments. Cells were first cultured at 37° C. with CO2 5% in order to allow cell attachment to the plate. Cells were then starved with 200 μl DMEM/well overnight. Immediately prior to the experiment, DMEM was removed and cells quickly washed with PBS. Cells were incubated in PBS in the presence or absence of antibodies to be tested or reference compounds, 10 min at 37° C. prior to the addition of coelenterazine with or without HGF in a final volume of 50 μl. […]
BRET ratio has been defined previously [Angers et al., Proc. Natl. Acad. Sci. USA, 2000, 97:3684-3689] as: [(emission at 530 nm)−(emission at 485 nm)×Cf]/(emission at 485 nm), where Cf corresponds to (emission at 530 nm)/(emission at 485 nm) for cells expressing Rluc fusion protein alone in the same experimental conditions. […] For the sake of readability, results are expressed in milliBRET units (mBU); mBU corresponds to the BRET ratio multiplied by 1000.

SEMA domain = biological target: T1, SEMA domain (Homo sapiens, UniProt P08581); test: ELISA recognition of recombinant SEMA domain; assay type: binding
T1 construct: the recombinant c-Met-Fc protein and the recombinant SEMA domain
Description: To characterize the pattern of recognition of the 3 selected antibodies, 3 ELISA have been set up with the recombinant c-Met protein, its monomeric fragment (obtained by cleavage of the recombinant c-Met-Fc protein and the recombinant SEMA domain.
To perform these ELISA the human dimeric c-Met protein (R&D sytems, cat#358MT) is coated at the concentration of 0.7 μg/ml in PBS overnight at 4° C. After saturation of the plates (Costar #3690) with a 0.5% gelatin solution 2 hours at 37° C., hybridoma supernatants are incubated 1 hour at 37° C. Once rinsed with PBS, the anti-mouse HRP-antibody (Jackson ImmunoResearch, catalog #115-035-164) is added to each well at a 1/5000 dilution in ELISA buffer (0.1% gelatin/0.05% Tween 20 in PBS) and the plates incubated for 1 hour at 37° C. […] The reaction is left to occur for 5 min at room temperature. The reaction is stopped by the addition of 50 μl/well of a 1 M H2SO4 solution and read on a plate reader at 450 nm. The same kind of protocol was performed on monomeric c-Met and SEMA domain but in that cases proteins were coated at 5 and 3 μg/ml respectively.

[2] = Example 9: DMEM-10% FCS, in presence and in absence of HGF 400 ng/ml
[3] = Example 23: DMEM-2.5% FCS, 10 or 17 days of culture

T1 sequence (P08581 27-515 limits assumed): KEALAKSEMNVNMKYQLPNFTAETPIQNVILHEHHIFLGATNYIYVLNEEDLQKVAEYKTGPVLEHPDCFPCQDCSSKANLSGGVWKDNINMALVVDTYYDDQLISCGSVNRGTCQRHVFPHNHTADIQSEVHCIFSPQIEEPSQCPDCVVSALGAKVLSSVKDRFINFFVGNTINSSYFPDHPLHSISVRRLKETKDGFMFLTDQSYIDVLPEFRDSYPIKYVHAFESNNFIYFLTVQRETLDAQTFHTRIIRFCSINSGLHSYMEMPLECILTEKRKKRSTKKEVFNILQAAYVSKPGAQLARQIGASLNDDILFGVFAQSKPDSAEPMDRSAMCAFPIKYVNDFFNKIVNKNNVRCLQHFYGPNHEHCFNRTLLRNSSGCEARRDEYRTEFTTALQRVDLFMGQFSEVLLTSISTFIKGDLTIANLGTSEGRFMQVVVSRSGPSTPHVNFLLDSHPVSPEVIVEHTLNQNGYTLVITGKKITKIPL
Chain of c-Met (P08581 25-307 limits assumed): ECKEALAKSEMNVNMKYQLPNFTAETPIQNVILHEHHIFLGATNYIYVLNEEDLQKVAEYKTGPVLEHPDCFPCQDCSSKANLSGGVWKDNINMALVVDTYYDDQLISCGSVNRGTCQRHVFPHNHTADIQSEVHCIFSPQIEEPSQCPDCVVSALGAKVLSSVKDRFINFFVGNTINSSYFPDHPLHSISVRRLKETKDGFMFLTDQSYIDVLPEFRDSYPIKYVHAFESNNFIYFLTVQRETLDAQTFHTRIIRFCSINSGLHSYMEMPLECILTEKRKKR
Chain of c-Met (P08581 308-932 limits assumed): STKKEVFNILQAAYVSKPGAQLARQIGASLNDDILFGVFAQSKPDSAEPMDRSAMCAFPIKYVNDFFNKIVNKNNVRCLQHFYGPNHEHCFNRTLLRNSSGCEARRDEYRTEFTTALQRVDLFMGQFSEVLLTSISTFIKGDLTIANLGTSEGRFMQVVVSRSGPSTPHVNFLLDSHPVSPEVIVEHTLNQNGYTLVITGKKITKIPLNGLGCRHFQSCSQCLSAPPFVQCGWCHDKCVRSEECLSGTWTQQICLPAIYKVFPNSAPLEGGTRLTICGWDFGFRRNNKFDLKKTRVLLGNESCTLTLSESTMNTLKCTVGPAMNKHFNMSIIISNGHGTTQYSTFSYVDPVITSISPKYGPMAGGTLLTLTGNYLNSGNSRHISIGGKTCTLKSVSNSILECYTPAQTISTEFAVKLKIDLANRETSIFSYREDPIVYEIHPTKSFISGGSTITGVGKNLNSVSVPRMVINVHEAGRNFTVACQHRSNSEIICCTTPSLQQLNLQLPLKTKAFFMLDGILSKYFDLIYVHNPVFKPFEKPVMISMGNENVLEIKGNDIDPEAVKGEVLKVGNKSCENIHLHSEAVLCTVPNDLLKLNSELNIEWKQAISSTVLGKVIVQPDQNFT

Molecule	effect on spheroid growth [1, 2]	inhibition of dimerization (c-Met) [%]	binding to SEMA domain (SEMA domain)	effect on spheroid growth [1, 3]
B1	reduced significantly	55	did not bind	–
B2	–	32	did not bind	markedly inhibited
B3	reduced significantly	69	able to bind	markedly inhibited
